45 variants from the Human Domainome abundance scans (Beltran et al. 2025) can be followed below.

± gives the uncertainty stated by the source.

Sequences and labels used below:
B1: LIM and senescent cell antigen-like-containing domain protein 2, residues 13 to 71; numbered along this chain, Q7Z4I7 (parent)
chain: AVCQRCQARFSPAERIVNSNGELYHEHCFVCAQCFRPFPEGLFYEFEGRKYCEHDFQML

In this series the parent is B1. Description: abundance fitness (aPCA) (normalised: wild type 0, dead -1); higher = more abundant; growth selection in yeast, the domain comes from the species named. The note with it: Homo sapiens.
On to AVCQRCQARFSPAERIVNSNGELYHNHCFVCAQCFRPFPEGLFYEFEGRKYCEHDFQML [E26N], for which the abundance fitness is -0.395 ± 0.27.
The same measure for AVCQRCQARFSPAERIVNSNGELYHKHCFVCAQCFRPFPEGLFYEFEGRKYCEHDFQML [E26K]: -0.125 ± 0.1; for AVCQRCQARFSPAERIVNSNGELYHPHCFVCAQCFRPFPEGLFYEFEGRKYCEHDFQML [E26P]: -0.294 ± 0.093; for AVCQRCQARFSPAERIVNSNGELYHDHCFVCAQCFRPFPEGLFYEFEGRKYCEHDFQML [E26D]: -0.114 ± 0.19.
AVCQRCQARFSPAERIVNSNGELYHRHCFVCAQCFRPFPEGLFYEFEGRKYCEHDFQML [E26R]: the abundance fitness is -0.237 ± 0.073.
Under AVCQRCQARFSPAERIVNSNGELYHMHCFVCAQCFRPFPEGLFYEFEGRKYCEHDFQML [E26M] stands -0.253 ± 0.095; under AVCQRCQARFSPAERIVNSNGELYHIHCFVCAQCFRPFPEGLFYEFEGRKYCEHDFQML [E26I], -0.084 ± 0.17.
Under AVCQRCQARFSPAERIVNSNGELYHHHCFVCAQCFRPFPEGLFYEFEGRKYCEHDFQML [E26H] stands -0.082 ± 0.2; under AVCQRCQARFSPAERIVNSNGELYHLHCFVCAQCFRPFPEGLFYEFEGRKYCEHDFQML [E26L], -0.401 ± 0.065; under AVCQRCQARFSPAERIVNSNGELYHVHCFVCAQCFRPFPEGLFYEFEGRKYCEHDFQML [E26V], 0.022 ± 0.068.
Turning to AVCQRCQARFSPAERIVNSNGELYHCHCFVCAQCFRPFPEGLFYEFEGRKYCEHDFQML [E26C], the abundance fitness was -0.51 ± 0.21.
For the variant AVCQRCQARFSPAERIVNSNGELYHFHCFVCAQCFRPFPEGLFYEFEGRKYCEHDFQML [E26F], the abundance fitness was -0.293 ± 0.12.
Regarding AVCQRCQARFSPAERIVNSNGELYHGHCFVCAQCFRPFPEGLFYEFEGRKYCEHDFQML [E26G], the abundance fitness was -0.353 ± 0.083.
The same measure for AVCQRCQARFSPAERIVNSNGELYHWHCFVCAQCFRPFPEGLFYEFEGRKYCEHDFQML [E26W]: -0.547 ± 0.14.
Under AVCQRCQARFSPAERIVNSNGELYHYHCFVCAQCFRPFPEGLFYEFEGRKYCEHDFQML [E26Y] stands -0.115 ± 0.18.
The same measure for AVCQRCQARFSPAERIVNSNGELYHSHCFVCAQCFRPFPEGLFYEFEGRKYCEHDFQML [E26S]: -0.051 ± 0.072; for AVCQRCQARFSPAERIVNSNGELYHTHCFVCAQCFRPFPEGLFYEFEGRKYCEHDFQML [E26T]: -0.164 ± 0.1; for AVCQRCQARFSPAERIVNSNGELYHEHCFVFAQCFRPFPEGLFYEFEGRKYCEHDFQML [C31F]: -0.954 ± 0.1.
Turning to AVCQRCQARFSPAERIVNSNGELYHEHCFVLAQCFRPFPEGLFYEFEGRKYCEHDFQML [C31L], the abundance fitness is -0.709 ± 0.058.
The same measure for AVCQRCQARFSPAERIVNSNGELYHEHCFVKAQCFRPFPEGLFYEFEGRKYCEHDFQML [C31K]: -1.1 ± 0.15; for AVCQRCQARFSPAERIVNSNGELYHEHCFVDAQCFRPFPEGLFYEFEGRKYCEHDFQML [C31D]: -0.574 ± 0.11.
On to AVCQRCQARFSPAERIVNSNGELYHEHCFVEAQCFRPFPEGLFYEFEGRKYCEHDFQML [C31E], for which the abundance fitness was -0.612 ± 0.11.
Take AVCQRCQARFSPAERIVNSNGELYHEHCFVHAQCFRPFPEGLFYEFEGRKYCEHDFQML [C31H]: the abundance fitness was -0.481 ± 0.13.
Take AVCQRCQARFSPAERIVNSNGELYHEHCFVIAQCFRPFPEGLFYEFEGRKYCEHDFQML [C31I]: the abundance fitness is -0.76 ± 0.11.
The same measure for AVCQRCQARFSPAERIVNSNGELYHEHCFVGAQCFRPFPEGLFYEFEGRKYCEHDFQML [C31G]: -0.774 ± 0.085.
Under AVCQRCQARFSPAERIVNSNGELYHEGCFVCAQCFRPFPEGLFYEFEGRKYCEHDFQML [H27G] stands -0.294 ± 0.23; under AVCQRCQARFSPAERIVNSNGELYHEPCFVCAQCFRPFPEGLFYEFEGRKYCEHDFQML [H27P], -0.228 ± 0.33; under AVCQRCQARFSPAERIVNSNGELYHEQCFVCAQCFRPFPEGLFYEFEGRKYCEHDFQML [H27Q], 0.148 ± 0.31.
On to AVCQRCQARFSPAERIVNSNGELYHEVCFVCAQCFRPFPEGLFYEFEGRKYCEHDFQML [H27V], for which the abundance fitness is -0.001 ± 0.31.
Turning to AVCQRCQARFSPAERIVNSNGELYHERCFVCAQCFRPFPEGLFYEFEGRKYCEHDFQML [H27R], the abundance fitness is -0.016 ± 0.18.
Regarding AVCQRCQARFSPAERIVNSNGELYHEACFVCAQCFRPFPEGLFYEFEGRKYCEHDFQML [H27A], the abundance fitness was -0.175 ± 0.25.
The same measure for AVCQRCQARFSPAERIVNSNGELYHEFCFVCAQCFRPFPEGLFYEFEGRKYCEHDFQML [H27F]: -0.209 ± 0.43.
Under AVCQRCQARFSPAERIVNSNGELYHETCFVCAQCFRPFPEGLFYEFEGRKYCEHDFQML [H27T] stands -0.227 ± 0.39.
For AVCQRCQARFSPAERIVNSNGELYHESCFVCAQCFRPFPEGLFYEFEGRKYCEHDFQML [H27S], the abundance fitness is -0.227 ± 0.29.
Under AVCQRCQARFSPAERIVNSNGELYSEHCFVCAQCFRPFPEGLFYEFEGRKYCEHDFQML [H25S] stands -0.894 ± 0.095; under AVCQRCQARFSPAERIVNSNGELYVEHCFVCAQCFRPFPEGLFYEFEGRKYCEHDFQML [H25V], -0.838 ± 0.1; under AVCQRCQARFSPAERIVNSNGELYWEHCFVCAQCFRPFPEGLFYEFEGRKYCEHDFQML [H25W], -0.568 ± 0.1.
For AVCQRCQARFSPAERIVNSNGELYYEHCFVCAQCFRPFPEGLFYEFEGRKYCEHDFQML [H25Y], the abundance fitness is -0.786 ± 0.26.
With AVCQRCQARFSPAERIVNSNGELYTEHCFVCAQCFRPFPEGLFYEFEGRKYCEHDFQML [H25T], the abundance fitness is -0.808 ± 0.12.
The same measure for AVCQRCQARFSPAERIVNSNGELYHEHCPVCAQCFRPFPEGLFYEFEGRKYCEHDFQML [F29P]: 0.029 ± 0.074.
Turning to AVCQRCQARFSPAERIVNSNGELYHEHCRVCAQCFRPFPEGLFYEFEGRKYCEHDFQML [F29R], the abundance fitness is -0.141 ± 0.058.
Under AVCQRCQARFSPAERIVNSNGELYHEHCAVCAQCFRPFPEGLFYEFEGRKYCEHDFQML [F29A] stands 0.207 ± 0.16.
For AVCQRCQARFSPAERIVNSNGELYHEHCTVCAQCFRPFPEGLFYEFEGRKYCEHDFQML [F29T], the abundance fitness is -0.011 ± 0.077.
Under AVCQRCQARFSPAERIVNSNGELYHEHCEVCAQCFRPFPEGLFYEFEGRKYCEHDFQML [F29E] stands -0.326 ± 0.12.
Under AVCQRCQARFSPAERIVNSNGELYHEHCQVCAQCFRPFPEGLFYEFEGRKYCEHDFQML [F29Q] stands -0.184 ± 0.069.
